Assay results reported in the DeepSol protein solubility set.

Assay: soluble on expression in E. coli; label from the status in PepcDB or PDB records

Row | Sequence | soluble on expression in E. coli
1 | MYKYISNELPQFFENGMLRFTQPGQFNDPFELLPRYVDFMGENTKQYILDNIEVLVKEIPQNEPWYIKLIPMSIKVFAIRLLLTSNHKRVKKVTDEIDAFGLSVANGQYRDIIDQSYGILCLSAKEDSLLMWSHYGNSHKGYVIEFDTSHKFFNQVIPNKKTGGVLDYAGTPLKVTYTKRRKTILFWQKAMSEVFLTKGSDWEYEQEYRMVLPLETSTEVVNGNIHLFHIPFDAVKSIIFGAKCEDEFIQNSIAKIHHWDSKHIDFQLFQFNLSDNDFELVRKKI | soluble
2 | MYLDFYGLHAHPFQLTPDPAFFFGANGHTRAKSYLMFGLSQGEGFVVVTGDVGAGKTTLLSHMLRSLSDRSIRVARLSTTQLSADDTARVVARAFGLAEPAHPSKGAWLEAIEVFLTQVRAAGERCVLIVDEVQNMGFAALEELRMLGNLGIDDGHSALQTILVGQPQFRNTLAGPSLDQLRQRIVASCHLGPIEPEEVGHYMRYRLTQAGWRGDPSFEEAVFPAVYRHSGGLPRRINILCSRLLLAGFLQERHDLRAQDVEEVAAELEAEAGEVIGVAGETRAGARLDGRFIDAGSLADLEERVLGIEERLRKVDLVVRRGLLNFSDFVSELNAVWKGRPLEHHHHHH | not soluble
3 | MYLHMAIAAPRILCPDMDSDTTKKWIFREPSRTDGDDVYALITECPPLDINSSYCNFLQATHFSKTCVLAEKDGDLAGFISGYQEPDEPNTLFIWQVAVSPRYRGKGLAFSMLTTLLERKNLLHIEFIETTITKANNASWSLFKKIDAQYGNQGQVTTFLDKESHFKGKHDTEYLYRIPLKSSQK | not soluble
4 | MYLLEINVFEGLNKKELSMIEVAHAILEQHADVMDFSDLVNQIQNYLGKSDSEIRDQLAQFYTDLNIDGSFISLGDNRWGLRSWYPIDSIDEEVTHGLEEDEEDAPRRRKRKKVNAFITNPNDEDVIDYNDDDPEDAELTNDDEEDILYDDEEDEDEEIKAYNSDLQEIGADSDDDEEDIPQIEEDLTIIDDDDVEDEDDFDDEYSEE | not soluble
5 | MYLLLSLALVCTAAASSGYGIPANDDPSYSPPANDNPSYSAPANSDNRLYYDYSSRSSSSSSDSSEERECRKLREFDLPSELKSIGVKAKFSEMERRGKTYTTISCPSNTKTYAIIADKSGSNVSQGDITIQDAVLLATGVNIDVVGRCRGRRTTVVANNGDEVKIKTVVCVELSTSPDKY | not soluble
6 | MYPNQQFMRGKVRDLPDSGVIYLNRIKPIAQEFQQETTAEVEVSVQNIPRHGKSPSSFEKYNSVEERSPTRLPMITTSTTAPKILIEKKVNQQKQEFQKSKQSQLSVPEEAELDRLLDDLLKSDNIPKVILDFFFKMKMIQNFQKTLQLAKIGRRSSKRHVGAYKPKVISFDGTARVNKQHARAHASPTSIGLNPIKTYAYGSSSSQNRGPDFDPWERMGQKALCNLLGTLLLELERIWEHMGGFIDTESPAFFVNETLAQQHIACVFCNKLFNMPQTWEKAQNALNLAGCSNLGGAKKACNGIVNNANLTESFPNMLPHNVQLKDLACKKYCKEQ | soluble
7 | MYQVITMYGDNEPWWFFDDWQEDIVQEKTFDNLTDAETYYVEVWQKLSQNYTYVNTKPNYLTAFWNDGEERWCEECDEDLQQYFGLALLENHHAVTFENKAEFTTISNHFGKTKFCKRKVI | not soluble
8 | MYRTPAAIVADATVGIPLVRFVTEEMEMTPELVALYTSHRSVWELLEGELKSLGLNPKVVYGTDVYKTRKSLQEVRPRVVFGSTIERHASEGLPVAYVVEVVRMMRQFRMINREYFGYTGILNLLECVQNEWVMGWRSKELEHHHHHH | not soluble
9 | MYTNSDFVVIKALEDGVNVIGLTRGADTRFHHSEKLDKGEVLIAQFTEHTSAIKVRGKAYIQTRHGVIESEGKKAAAAAAA | soluble
10 | MYVAVKGGEKAIDNAHRLLARKRRGDTALPELSVEQIRQQMPLAVSRVMTEGSLYDEQLAALAIKQAAGDLMEAIFLLRAYRTTLPRFAASLPLDTAGMRLQRRISATYKDLPGGQLLGPTFDYTHRLLDFSLLAEGDYPGPEVERGASLEPCPRVLGLLDREGLMTPEYELPGAVPDITREPLDFPTGRAQRLQALARGDEGFLLALGYSTQRGYGRNHPFAGEIRIGACEVWLEPEELGFAVPVGEIEVTECEMVNQFVGSREELPQFTRGYGLAFGYAERKAMGMALVDRALRAEEYGEEVVSPAQQEEFVLMHCDNVEAGGFVSHLKLPHYVDFQSELELIRKLRRPGVAESAQPTVQEKRA | not soluble
11 | MYYERPVFDIVDTWEIREREVLKPVLSVAEEDYCYFVQNTVASAQRSWVDLVANLFNSPDSDIDDALNRFADAPCLHGPTLEPMNLILKGSPMYVYCSFEEMRSCATKRFYEGISNRGVVICTVPPYAEGVTRDDMSVWQNQACVNTCSGKNDLDAYIAFLPTSSLQESSYWHTKNGIYSFLAPSQTDAFCCEILCVGRALFEDRSRKEKLRNCLLKLLNYRLKLLFAAALEHHHHHH | not soluble
12 | NAAQALVNVQTSVIPKTAFAARDFVDYSFPQEQKDKEKRKQQWVKNSHTKNSDVQPFAEFAILEIPLFSKSKVDRKIFNHFIQPAIRTYKQLGDSLNIFANPTLDQLKQNRYYVLGYPFLKNKVSSLFLNQTGKKKGIFRRKYTNIPWKTSYYLN | not soluble
13 | NCCVKGNSIYPQKTSTKQTGLMLDIARHFYSPEVIKSFIDTISLSGGNFLHLHFSDHENYAIESHLLNQRAENAVQGKDGIYINPYTGKPFLSYRQLDDIKAYAKAKGIELIPELDSPNHMTAIFKLVQKDRGVKYLQGLKSRQVDDEIDITNADSITFMQSLMSEVIDIFGDTSQHFHIGGDEFGYSVESNHEFITYANKLSYFLEKKGLKTRMWNDGLIKNTFEQINPNIEITYWSYDGDTQDKNEAAERRDMRVSLPELLAKGFTVLNYNSYYLYIVPKASPTFSQDAAFAAKDVIKNWDLGVWDGRNTKNRVQNTHEIAGAALSIWGEDAKALKDETIQKNTKSLLEAVIHKTNGDEHHHHHH | soluble
14 | NDSPFYVNPNMSSAEWVRNNPNDPRTPVIRDRIASVPQGTWFAHHNPGQITGQVDALMSAAQAAGKIPILVVSNAPGRDCGNHSSGGAPSHSAYRSWIDEFAAGLKNRPAYIIVEPDLISLMSSCMQHVQQEVLETMAYAGKALKAGSSQARIYFDAGHSAWHSPAQMASWLQQADISNSAHGIATNTSNYRWTADEVAYAKAVLSAIGNPSLRAVIDTSRNGNGPAGNEWCDPSGRAIGTPSTTNTGDPMIDAFLWIKLPGEADGCIAGAGQFVPQAAYEMAIAA | soluble
15 | NFVAPQDRIATFDNDGTLWSEKPMYFQILFMLDQIKEQAASHPDWKTTKPYSLVLSGQIDKLSLEDVLTMVQKTHSGMSSDEFTSIVQAWISTAKHPATGRPYTDMVYQPMLELLDYLDSNGFKNFIVSGGGNAFMRAWATDVYNIPSERIIGTRLSTEFVNVDGSYQVKRVPGIEVNNDKAEKPQQIYQHIGKRPIASFGNSDGDLQMLQWTTSGT | not soluble
16 | NGSKTDLGLLSKNSADFLGSSKRSLAGFDTPFSPDNLQYLEKETDYDQNFKSFTEKFKDEKITNNQLGIVDIYNLFSGFHKSVKSTVDLMNQLQKQVEAANAIFPVDDAFVKLPKVPTELFKLVDDNVFPKLNPKGLNISDNIAALFERYNLKSIELKNFDLAFLRKADVIIKDKVRYNFEM | not soluble
17 | NIDLDIHARENIANITNAMIELVSQDCHWLKVWFEWSASTRDEVWPLFVSTNRTNQLLVQNMFIKAIERGEVCDQHDSEHLANLFHGICYSLFVQANRFKGEAELKELVSAYLDMLCIYNREH | not soluble
18 | NIKNILSERVSAAMVAAGLPEGTNPAISLSNRPQFGDYQANGVMGAAKKLKTNPRELATKVVAELDLDGIASKIELAGPGFINIHLDESWLAAQLNEVAQDDFIGVAQRGTT | not soluble
19 | NLVNFHRMIKLTTGKEAALSYGFYGCHCGVGGRGSPKDATDRCCVTHDCCYKRLEKRGCGTKFLSYKFSNSGSRITCAKQDSCRSQLCECDKAAATCFARNKTTYNKKYQYYSNKHCRGSTPRC | soluble
20 | NRFIGYIQVACCCLLLCASCVRDGMDEDCNSYVRFVYDYNLEYIDLFHKQATKMNLYVFDEKGVFVTELKEESGAFAPDYLMTLPGAMAGRRYIFVAWSGLYGESYDKVTLTPGVSTLEDLEVSVNNLKTRIGGGVVDRELHLLWHGKQTEVSPQYNNDITTVSLLKNTKKFRIIMQMLDDSSIHVDDYDFRIISPNGRYNHENGLLGDETDEKVEYTAYHTEDDPETGAIAELNTLRLMTDTENRLVITHKSSGNVILDIPLNKYLNALRLQQYADIPLQEYLDRADKHGIILFFKGMDGNGNYISVDVQINGWLIRKQEVD | not soluble
21 | NVAGEEAVREYKKGDEISAVVLAVDAERERISLGIKQMENDPFNAYVADNKKGTLVNATVTAVDAKGATVEIAEGVEGYIRASEVSRDRVEDASLILSAGDVVEAKFTGVDRKNRVINLSIKAKDEAEEQEAMASINKQDEAAFGNAMADAFKAAKGE | not soluble
22 | NVRVITDENWRELLEGDWMIEFYAPWCPACQNLQPEWESFAEWGEDLEVNIAKVDVTEQPGLSGRFIINALPTIYHCKDGEFRRYQGPRTKKDFINFISDKEWKSIEPVSSWF | soluble
23 | PAFALTSPWAGSDAAAIPDHGTVCKGQWQGQEVLGMRVTWDKRYITLAPVCTLLGLAFRLYDPDGLLGGRKDLGITCALVPHDHPGVDTGRRHFPLNAMFMNGPTRGTDVFMPLEFIIDG | not soluble
24 | PAQDNSRFVIRDRNWHPKALTPDYKTSIARSPRQALVSIPQSISETTGPNFSHLGFGAHDHDLLLNFNNGGLPIGERIIVAGRVVDQYGKPVPNTLVEMWQANAGGRHRHKNDRYLAPLDPNFGGVGRCLTDSDGYYSFRTIKPGPYPWRNGPNDWRPAHIHFGISGPSIATKLITQLYFEGDPLIPMCPIVKSIANPEAVQQLIAKLDMNNANPMDCLAYRFDIVLRGQRKTHFENC | soluble
25 | PARLSTADKYTENPVSGVMAQLYSARSKNSWGMGDFNDLGLLAETLAPQADYLLINPLHAAEPMPPVEDSPYLPTTRRFINPIYIRIEDIPEHLLLDDDLQNDIAELAEKFTALNLTPEKIERNPIFDAKLQVLHAVFNVEREPAREQDFQDFIATEGQGLRDFASWCADQELAVLESSAAHAALPEKESLIQFYMWQQWICDQQLGAAQTRATD | not soluble
26 | PETKTGKKILLAAPRGYCAGVDRAVETVERALEEYGAPIYVRKEIVHNRYVVDTLAEKGAIFVNEASEAPEGANMVFSAHGVSPMVHEEAAAKNIKAIDAACPLVTKVHKEVQRFDKQGFHILFIGHEGHEEVEGTMGHSVEKTHLVDGVAGIATLPEFLNDEPNLIWLSQTTLSVDETMEIVRELKVKFPQLQDPPSDDICYATQNRQVAVKAIAERCELMIVVGSRNSSNSVRLVEVAKQNGADNAYLVDYAREIDPAWFEGVETIGISSGASVPEILVQGVIERLAEFGYD | not soluble
27 | PETVCWGHVEEVELINDGSGLGFGIVGGKTSGVVVRTIVPGGLADRDGRLQTGDHILKIGGTNVQGMTSEQVAQVLRNCGNSVRMLVARDPAGDISVT | soluble
28 | PFEIVFEGAKEFAQLIDTASKLIDEAAFKVTEDGISMRAMDPSRVVLIDLNLPSSIFSKYEVVEPETIGVNLDHLKKILKRGKAKDTLILKKGEENFLEITIQGTATRTFRVPLIDVEEMEVDLPELPFTAKVVVLGEVLKAAVKAASLVSDSIKFIARENEFIMKAEGETQEVEIKLTLEDEGLLDIEVQEETKSAYGVSYLSDMVKGLGKADEVTIKFGNEMPMQMEYYIRDEGRLTFLLAPRVEE | soluble
